pKd: −log10 of the molar value.
Assays:
[1] = target: human ErbB2 receptor on BT474 human breast tumor cells (human) (UniProt P04626); test: cell-based or functional assay
[2] = target: human ErbB2 receptor on BT474 human breast tumor cells (human) (UniProt P04626); test: Scatchard analysis, 125I-antibody on BT474 cell monolayers, on ice

- % apoptosis of BT474 cell population (Hoechst 33342 cell cycle analysis, 3 days) [1]: 41.9%
- proportion of S-phase cells (BT474, 3 days) [1]: 5.4%
- pKd [2]: 8.19
Substance: anti-ErbB2 IgG1κ murine monoclonal antibody 4D5 (ATCC CRL 10463)

From US7371376
